Experimental findings from article PMC4474691, “Leukemia-Associated Mutations in Nucleophosmin Alter Recognition by CRM1: Molecular Basis of Aberrant Transport” (PLoS ONE, 2015) are described below.

In the test the target is CRM1^HA (high affinity mutant of CRM1) (UniProt Q6P5F9). Nature of the test: ITC; TFP-NES, YFP-NES or NES peptides at 35–180 μM titrated onto CRM1^HA at 2–14 μM; 20°C; 20 mM HEPES pH 7.4, 50 mM NaCl, 1 mM TCEP, 1 mM MgCl2; independent binding sites model. (ITC needs no label: the signal is the heat of the interaction.)
For orientation: Kd means the equilibrium constant for the complex coming apart. A low value points to a tighter complex. Broadly, the stoichiometry N is a count of units in the complex or per binding partner. TFP-mutA(NES) (domain or fragment): the dissociation constant Kd turned out to be 2380 nM, the dH is -14.5 kcal/mol and the stoichiometry N turned out to be 0.54.

As to TFP-mutE(NES) (domain or fragment), the Kd was found to be 1040 nM, the dH is -15.4 kcal/mol and the stoichiometry N worked out at 0.8.

Take YFP-PKI(NES) (domain or fragment): the Kd came to 18 nM, the dH is -13.7 kcal/mol and the stoichiometry N stood at 1.01.

Take “peptide AL (long NES motif of NPM mutant A, with Ile284)”: the Kd amounted to 57 nM, the dH is -18.1 kcal/mol and the stoichiometry N was 0.33.

Substance “peptide EL (long NES motif of NPM mutant E, with Ile284)” had a Kd of 31 nM, a dH of -19.8 kcal/mol and a stoichiometry N of 0.51.

Regarding “peptide ES (short NES motif of NPM mutant E)”, the Kd came out at 76 nM, the dH is -20.8 kcal/mol and the stoichiometry N came out at 0.4.
